Test results from patent US20220331457A1.

What was measured:
[1] = target: human carbonic anhydrase IX (CAIX) (human) (UniProt Q16790); assay: SPR (Biacore T200), multicycle kinetics; purified antibody captured on Protein G chip, CAIX as analyte
[2] = target: human carbonic anhydrase IX (CAIX) (human) (UniProt Q16790); assay: competition ELISA on coated CAIX; competitor: biotinylated chimeric Girentuximab IgG1

- relative KD (KD of the variant divided by KD of the chimeric antibody on the same chip) [1]: < 2 fold
- relative IC50 (IC50 of the variant divided by IC50 of the Girentuximab chimeric IgG1 antibody on the same plate) [2]: < 2 fold
Substance: Chimeric Girentuximab (VH0/Vκ0) IgG4 (S228P, L235E) (antibody)
